Experimental data published in US20260242478A1 (published 2026).
Where no end group is shown, it is not given here.

B1: Phage-3533 (peptide)
peptide: VERVCVPQWMCSGF
notes: Tested as crude clonal phage supernatant
B2: Phage-3534 (peptide)
peptide: ESVYCIPQWMCSGL
notes: as for B1
B3: Phage-3535 (peptide)
peptide: LNAMCVPAWMCTGF
notes: as for B1
B4: Phage-3492 (peptide)
peptide: DILRCVPEWMCTGF
modifications: cysteine pairing not given here; also: fused to pIII of bacteriophage, pIII and linker not given here
notes: Peptide-180 library clone, tested as clonal phage supernatant with the peptide fused to pIII of the bacteriophage
B5: Phage-3493 (peptide)
peptide: YPTWCVPTWMCTGM
modifications: cysteine pairing not given here; also: fused to pIII of bacteriophage, pIII and linker not given here
notes: as for B4
B6: Phage-3494 (peptide)
peptide: DYMMCSPDWMCKGF
modifications: cysteine pairing not given here; also: fused to pIII of bacteriophage, pIII and linker not given here
notes: as for B4
B7: Phage-3495 (peptide)
peptide: SMAWCVPNWMCTGF
modifications: cysteine pairing not given here; also: fused to pIII of bacteriophage, pIII and linker not given here
notes: as for B4
B8: Phage-3496 (peptide)
peptide: QDMVCRPAWMCTGF
modifications: cysteine pairing not given here; also: fused to pIII of bacteriophage, pIII and linker not given here
notes: as for B4
B9: Phage-3497 (peptide)
peptide: VDRICKPDWMCAGF
modifications: cysteine pairing not given here; also: fused to pIII of bacteriophage, pIII and linker not given here
notes: as for B4
B10: Phage-3498 (peptide)
peptide: TVHYCTPSWMCTGF
modifications: cysteine pairing not given here; also: fused to pIII of bacteriophage, pIII and linker not given here
notes: as for B4
B11: Phage-3499 (peptide)
peptide: THPLCVPTWMCSGF
modifications: cysteine pairing not given here; also: fused to pIII of bacteriophage, pIII and linker not given here
notes: as for B4
B12: Phage-3500 (peptide)
peptide: YDHFCVPRWMCEGL
modifications: cysteine pairing not given here; also: fused to pIII of bacteriophage, pIII and linker not given here
notes: as for B4
B13: Phage-3501 (peptide)
peptide: PLRYCEPAWMCFGF
modifications: cysteine pairing not given here; also: fused to pIII of bacteriophage, pIII and linker not given here
notes: as for B4
B14: Phage-3502 (peptide)
peptide: WLYSCIPQWMCTGF
modifications: cysteine pairing not given here; also: fused to pIII of bacteriophage, pIII and linker not given here
notes: as for B4
B15: Phage-3503 (peptide)
peptide: EAPACVPVWMCNGF
modifications: cysteine pairing not given here; also: fused to pIII of bacteriophage, pIII and linker not given here
notes: as for B4

Each binder was assayed against T1, PSMA Fab (SEQ ID NOs: 19, 20) (assay: clonal phage ELISA on captured PSMA Fab, wells pre-incubated with PSMA antigen as competitor).
T1 construct: also called Anti-PSMA Fab; 006 PSMA Fab
Description: (§1) Clonal phage were harvested as crude supernatants and screened via standard ELISAs. […] Prior to the addition of clonal phage. wells were incubated with blocking buffer and PSMA antigen or blocking buffer alone. Without washing or aspirating, clonal phage supernatants were then added to the wells and incubated for a short time. Wells were then washed followed by detection of bound phage using a horse radish conjugated anti-M13 antibody.

Binder | Phage binding ELISA signal, Anti-PSMA Fab with PSMA antigen
B1 | 0.1
B2 | 0.0698
B3 | 0.0634

These binders were tested against T2, PSMA Fab (biotinylated (site not stated)) (assay: clonal phage ELISA on biotinylated PSMA Fab captured on neutravidin plate, anti-M13 HRP detection; no PSMA antigen).
T2 construct: also called Anti-PSMA Fab; 006 PSMA Fab

Binder | phage binding ELISA signal
NIIHCVPPWMCDGF [Phage-3504] | 1.7
IEIRCKPEWMCTSF [Phage-3505] | 1.7
LTQMCKPLWMCAGF [Phage-3506] | 1.69
AEPVCVPDWMCFGF [Phage-3507] | 1.69
VDHRCVPSWMCYGL [Phage-3508] | 1.69
EYMRCEPSWMCYGF [Phage-3509] | 1.69
ADIYCKPVWMCTGF [Phage-3510] | 1.69
VGHMCKPVWMCAGL [Phage-3511] | 1.69
TEQICKPAWMCTGL [Phage-3512] | 1.69
SVTTCIPPWMCTGF [Phage-3513] | 1.69
VVKHCVPTWMCAGF [Phage-3514] | 1.69
PELACIPEWMCIGF [Phage-3515] | 1.69
SVAYCVPTWMCDGL [Phage-3516] | 1.69
MVPRCEPEWMCVGF [Phage-3517] | 1.69

Each binder was assayed against T2, PSMA Fab (assay: clonal phage ELISA on captured PSMA Fab; competitor: PSMA antigen at saturating concentration).
Description: as §1

Binder | phage binding ELISA signal
NIIHCVPPWMCDGF [Phage-3504] | 0.0795
IEIRCKPEWMCTSF [Phage-3505] | 0.0708
LTQMCKPLWMCAGF [Phage-3506] | 0.0786
AEPVCVPDWMCFGF [Phage-3507] | 0.103
VDHRCVPSWMCYGL [Phage-3508] | 0.0745
EYMRCEPSWMCYGF [Phage-3509] | 0.0584
ADIYCKPVWMCTGF [Phage-3510] | 0.0909
VGHMCKPVWMCAGL [Phage-3511] | 0.101
TEQICKPAWMCTGL [Phage-3512] | 0.0536
SVTTCIPPWMCTGF [Phage-3513] | 0.0979
VVKHCVPTWMCAGF [Phage-3514] | 0.0813
PELACIPEWMCIGF [Phage-3515] | 0.0803
SVAYCVPTWMCDGL [Phage-3516] | 0.0618
MVPRCEPEWMCVGF [Phage-3517] | 0.0705

Each binder was assayed against T1, PSMA Fab (SEQ ID NOs: 19, 20) (assay: clonal phage ELISA, biotinylated PSMA Fab on neutravidin plate, anti-M13 HRP detection;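 also: crude clonal phage supernatants added to wells pretreated with blocking buffer either with or without PSMA antigen, bound phage read after washing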).
Description: as §1

Binder | Phage binding ELISA signal, Anti-PSMA Fab
B1 | 1.66
B2 | 1.66
B3 | 1.66

These binders were tested against T3, Anti-PSMA Fab (assay: clonal phage ELISA on captured PSMA Fab pre-incubated with PSMA antigen as competitor, anti-M13 HRP detection;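 also: crude clonal phage supernatants tested by ELISA, wells first treated with blocking buffer plus PSMA antigen, bound phage read out via HRP-linked anti-M13 antibody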).
T3 construct: Biotinylated and captured on neutravidin coated plates in the phage ELISA; also called 006 PSMA Fab
Description: as §1

Binder | Phage binding ELISA signal, Anti-PSMA Fab with PSMA antigen
B4 | 0.0911
B5 | 0.0716
B6 | 0.0722
B7 | 0.0897
B8 | 0.0848
B9 | 0.091
B10 | 0.0866
B11 | 0.0862
B12 | 0.0592
B13 | 0.0601
B14 | 0.127
B15 | 0.0778

The binders below were run against T3, Anti-PSMA Fab (assay: clonal phage ELISA on biotinylated PSMA Fab captured on neutravidin plate, anti-M13 HRP detection, blocking buffer alone).
Description: as §1

Binder | Phage binding ELISA signal, Anti-PSMA Fab
B4 | 1.71
B5 | 1.71
B6 | 1.7
B7 | 1.7
B8 | 1.7
B9 | 1.7
B10 | 1.7
B11 | 1.7
B12 | 1.7
B13 | 1.7
B14 | 1.7
B15 | 1.7
